According to article PMC2726290, “Decoding of Methylated Histone H3 Tail by the Pygo-BCL9 Wnt Signaling Complex” (Molecular Cell, 2008):
Where a chain is given by its changes, count along the chain named.

Tests used:
[1] = target: T1, hPHD-HD1 complex (hPygo1 PHD 333-402 with hBCL9 HD1) (human, UniProt Q9Y3Y4 333-402; O00512 177-205); experiment: ITC; protein dialysed into 100 mM NaCl, 25 mM Tris-HCl (pH 8.0), 10 uM ZnCl2, 2 mM beta-mercaptoethanol; histone peptides with free PHD or PHD-HD1 complex; one-site model; settings: both partners purified
T1 construct: PHD finger of human Pygo1, amino acids 333-402; also called binary complex; human PHD-HD1 complex; source: E. coli BL21-CodonPlus(DE3)-RIL, coexpressed from a bicistronic vector, purified as a complex; not shown: GST, N-terminal, cleaved; MBP, N-terminal, cleaved
T1 sequence (looked up) 1: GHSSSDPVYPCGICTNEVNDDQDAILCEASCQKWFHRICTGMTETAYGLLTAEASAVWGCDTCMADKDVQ
T1 sequence (looked up) 2: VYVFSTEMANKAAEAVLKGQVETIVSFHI

hPygo1 PHD finger E349A = target: T2, hPygo1 PHD finger E349A (human, UniProt Q9Y3Y4 333-402, E349A); experiment: as above; settings: both partners purified
T2 construct: PHD finger of human Pygo1 with E349A; source: E. coli, purified; not shown: GST, N-terminal, cleaved
T2 sequence (looked up): T1 sequence (looked up) 1 with E17A

B1: H3R2me2aK4me2 18-mer histone H3 tail peptide (peptide, UniProt P68431 2-19, looked up)
peptide: ARTKQTARKSTGGKAPRK
modifications: asymmetric dimethyl-arginine at R2 (R2me2a); dimethyl-lysine at K4
notes: histone H3 tail, 18-mer; Only the first seven residues are modelled in the structure; also called 18-mer histone H3 tail carrying both K4me2 and asymmetrically methylated R2 (R2me2a)
In the case of B1, the Kd [1] is reported as 2.1 µM.

Work on ARTKQTARKSTGGKA (peptide, UniProt P68431 2-16, looked up, trimethyl-lysine at K4, histone H3 tail, 15-mer) [H3K4me3 15-mer histone H3 tail peptide] yielded a Kd (hPygo1 PHD finger E349A) of 22 µM.

B2: H3K4me2 9-mer histone H3 tail peptide (peptide, UniProt P68431 2-10, looked up)
peptide: ARTKQTARK
modifications: dimethyl-lysine at K4
notes: histone H3 tail, 9-mer; the limits follow from the truncated form 'spanning R2-K9 (without A1)'; Only the first seven residues are modelled in the structure; also called 9-mer H3K4me2 peptide
Work on B2 yielded a Kd [1] of 11 µM.
